Measurements taken from patent publication US20210388087A1 (Chugai, published 2021).
Where a chain is given by its changes, count along the chain named.

B1: dBBDu174 (antibody, V domains shown)
VH: QVQLVESGGGLVQPGRSLRLSCAASGFTFSSAWMHWVRQAPGKGLEWVAQIKDRASAYNAYYAESVKGRFTISRDDSKNSIYLQMNSLKTEDTAVYYCRYVHYPSYVSFLPYYGVDAWGQGTTVTVSS
VL: DIVMTQSPLSLPVTPGEPASISCRSSQSLVHSNRNTYLHWYQQKPGQAPRLLIYKVSNRFSGVPDRFSGSGSGTDFTLKISRVEAEDVGVYYCGQGTQVPYTFGQGTKLEIK
notes: Human IgG1; light chain GLS3000 (kappa)
B2: Du115/DUL008 (antibody, V domains shown)
VH: QVQLVESGGGLVQPGRSLRLSCAASGFTFSNAWMHWVRQAPGKGLEWVAQIKDKANSYNTYYAPSVKGRFTISRDDSKNSIYLQMNSLKTEDTAVYYCRYVHYGSSYGFLFAGYGVDAWGQGTTVTVSS
VL: DIVMTQSPLSLPVTPGEPASISCQSSEELLHANRKTYLHWYQQKPGQAPRLLIYKVQNRFSGVPDRFSGSGSGTDFTLKISRVEAEDVGVYYCAQGTATPFTFGQGTKLEIK
B3: dBBDu217 (antibody, human IgG1, V domains shown)
VH: QVQLVESGGGLVQPGRSLRLSCAASGFTFSNAWMHWVRQAPGKGLEWVAQIKDRQQGYATYYAPSVKGRFTISRDDSKNSIYLQMNSLKTEDTAVYYCRFVHYHLAGYGYYGVDAWGQGTTVTVSS
VL: B1 VL
notes: human IgG1; GLS3000 light chain
B4: dBBDu197 (antibody, human IgG1, V domains shown)
VH: QVQLVESGGGLVQPGRSLRLSCAASGFTFSNAWMHWVRQAPGKGLEWVAQIKDRSNAYAAYYAPSVKGRFTISRDDSKNSIYLQMNSLKTEDTAVYYCHYVHYASASTVLPAFGVDAWGQGTTVTVSS
VL: B1 VL
notes: as for B3
B5: dBBDu139 (antibody, human IgG1, V domains shown)
VH: QVQLVESGGGLVQPGRSLRLSCAASGFTFSNAWMHWVRQAPGKGLEWVAQIKDRGNAYNAYYAESVKGRFTISRDDSKNSIYLQMNSLKTEDTAVYYCRFVHYRHPLLHIQYGVDAWGQGTTVTVSS
VL: B1 VL
notes: as for B3
B6: dBBDu189 (antibody, human IgG1, V domains shown)
VH: B4 VH with V48I, A57Q, A60T, S105Q, T108S, V109L, A112S
VL: B1 VL
notes: as for B3
B7: dBBDu167 (antibody, human IgG1, V domains shown)
VH: B4 VH with R54K, S55G, A57L, S107G, T108G, V109G, A112G
VL: B1 VL
notes: as for B3
B8: dBBDu199 (antibody, human IgG1, V domains shown)
VH: B4 VH with R54K, S55Q, N56S, A57G, A59N, A60T
VL: B1 VL
notes: as for B3
B9: dBBDu181 (antibody, human IgG1, V domains shown)
VH: B4 VH with V48I, S55G, A57N, A59N, A60N, S105T, V109L, P111G, F113Y
VL: B1 VL
notes: as for B3
B10: dBBDu193 (antibody, human IgG1, V domains shown)
VH: B4 VH with A57Q, A60T, A104S, S105A, V109L, A112S
VL: B1 VL
notes: as for B3
B11: dBBDu173 (antibody, human IgG1, V domains shown)
VH: B4 VH with R54K, S55G, A57L, S107G, T108G, V109G, P111S, F113Y
VL: B1 VL
notes: as for B3
B12: dBBDu186 (antibody, human IgG1, V domains shown)
VH: B4 VH with A57Q, A60T, S105Q
VL: B1 VL
notes: as for B3
B13: dBBDu196 (antibody, human IgG1, V domains shown)
VH: B4 VH with S55G, A59N, P64E
VL: B1 VL
notes: as for B3

These binders were tested against T1, human CD137-Fc (human, biotin-labeled) (assay: bead ELISA on biotin-human CD137-Fc, 125 vs 0 pmol free CD3e peptide;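 further: target captured on streptavidin-coated magnetic beads, signal read as fluorescence 2 min after adding APS-5 substrate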).
T1 construct: if 90 already holds the Fc, drop the second piece; also called biotin-labeled human CD137 fused to human IgG1 Fc fragment; biotin-human CD137-Fc; not shown: human IgG1 Fc fragment

Row | Signal decrease | Binder
1 | 60.8% | B1
2 | 97% | B2

What follows are binders tested against T2, biotin-labeled human CD137 fused to human IgG1 Fc fragment (human, UniProt Q07011 24-186, biotin-labeled) (assay: bead ELISA, 1250 ng IgG, S/N over biotin-human Fc).
T2 construct: also called human CD137-Fc; biotin-human CD137-Fc; not shown: human IgG1 Fc fragment

Row | binding result | Binder
3 | binds | B3
4 | binds | B4
5 | binds | B5
6 | binds | B6
7 | binds | B7
8 | binds | B8
9 | binds | B9
10 | binds | B10
11 | binds | B11
12 | binds | B12
13 | binds | B13

These binders were tested against T1, human CD137-Fc (assay: bead ELISA on biotin-human CD137-Fc with 125 pmol/well free CD3e peptide as competitor;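 further: Streptavidin-coated magnetic beads in blocking buffer as the capture surface, well signal read as fluorescence 2 min after adding APS-5 substrate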).

Row | ELISA signal | Binder
14 | 1880 | B1
15 | 2620 | B2

What follows are binders tested against T1, human CD137-Fc (assay: bead ELISA on biotin-human CD137-Fc, 0 pmol free CD3e peptide).

Row | ELISA signal | Binder
16 | 4800 | B1
17 | 86200 | B2
